{"source": "paper PMC4872748", "about": "“NG2 proteoglycan as a pericyte target for anticancer therapy by tumor vessel infarction with retargeted tissue factor” (Oncotarget, 2016)", "target": "T1, NG2 (nerve/glial antigen 2) proteoglycan (human (endogenous in HuAoSMC and G361), UniProt Q6UVK1 30-2322)", "T1 construct": "NG2 proteoglycan (CSPG4), transmembrane surface proteoglycan, endogenous on human cells; also called high-molecular melanoma associated antigen; CSPG4; source: endogenous, on human aortic smooth muscle cells (HuAoSMC) and G361-melanoma cells", "T1 sequence (Q6UVK1 30-2322)": "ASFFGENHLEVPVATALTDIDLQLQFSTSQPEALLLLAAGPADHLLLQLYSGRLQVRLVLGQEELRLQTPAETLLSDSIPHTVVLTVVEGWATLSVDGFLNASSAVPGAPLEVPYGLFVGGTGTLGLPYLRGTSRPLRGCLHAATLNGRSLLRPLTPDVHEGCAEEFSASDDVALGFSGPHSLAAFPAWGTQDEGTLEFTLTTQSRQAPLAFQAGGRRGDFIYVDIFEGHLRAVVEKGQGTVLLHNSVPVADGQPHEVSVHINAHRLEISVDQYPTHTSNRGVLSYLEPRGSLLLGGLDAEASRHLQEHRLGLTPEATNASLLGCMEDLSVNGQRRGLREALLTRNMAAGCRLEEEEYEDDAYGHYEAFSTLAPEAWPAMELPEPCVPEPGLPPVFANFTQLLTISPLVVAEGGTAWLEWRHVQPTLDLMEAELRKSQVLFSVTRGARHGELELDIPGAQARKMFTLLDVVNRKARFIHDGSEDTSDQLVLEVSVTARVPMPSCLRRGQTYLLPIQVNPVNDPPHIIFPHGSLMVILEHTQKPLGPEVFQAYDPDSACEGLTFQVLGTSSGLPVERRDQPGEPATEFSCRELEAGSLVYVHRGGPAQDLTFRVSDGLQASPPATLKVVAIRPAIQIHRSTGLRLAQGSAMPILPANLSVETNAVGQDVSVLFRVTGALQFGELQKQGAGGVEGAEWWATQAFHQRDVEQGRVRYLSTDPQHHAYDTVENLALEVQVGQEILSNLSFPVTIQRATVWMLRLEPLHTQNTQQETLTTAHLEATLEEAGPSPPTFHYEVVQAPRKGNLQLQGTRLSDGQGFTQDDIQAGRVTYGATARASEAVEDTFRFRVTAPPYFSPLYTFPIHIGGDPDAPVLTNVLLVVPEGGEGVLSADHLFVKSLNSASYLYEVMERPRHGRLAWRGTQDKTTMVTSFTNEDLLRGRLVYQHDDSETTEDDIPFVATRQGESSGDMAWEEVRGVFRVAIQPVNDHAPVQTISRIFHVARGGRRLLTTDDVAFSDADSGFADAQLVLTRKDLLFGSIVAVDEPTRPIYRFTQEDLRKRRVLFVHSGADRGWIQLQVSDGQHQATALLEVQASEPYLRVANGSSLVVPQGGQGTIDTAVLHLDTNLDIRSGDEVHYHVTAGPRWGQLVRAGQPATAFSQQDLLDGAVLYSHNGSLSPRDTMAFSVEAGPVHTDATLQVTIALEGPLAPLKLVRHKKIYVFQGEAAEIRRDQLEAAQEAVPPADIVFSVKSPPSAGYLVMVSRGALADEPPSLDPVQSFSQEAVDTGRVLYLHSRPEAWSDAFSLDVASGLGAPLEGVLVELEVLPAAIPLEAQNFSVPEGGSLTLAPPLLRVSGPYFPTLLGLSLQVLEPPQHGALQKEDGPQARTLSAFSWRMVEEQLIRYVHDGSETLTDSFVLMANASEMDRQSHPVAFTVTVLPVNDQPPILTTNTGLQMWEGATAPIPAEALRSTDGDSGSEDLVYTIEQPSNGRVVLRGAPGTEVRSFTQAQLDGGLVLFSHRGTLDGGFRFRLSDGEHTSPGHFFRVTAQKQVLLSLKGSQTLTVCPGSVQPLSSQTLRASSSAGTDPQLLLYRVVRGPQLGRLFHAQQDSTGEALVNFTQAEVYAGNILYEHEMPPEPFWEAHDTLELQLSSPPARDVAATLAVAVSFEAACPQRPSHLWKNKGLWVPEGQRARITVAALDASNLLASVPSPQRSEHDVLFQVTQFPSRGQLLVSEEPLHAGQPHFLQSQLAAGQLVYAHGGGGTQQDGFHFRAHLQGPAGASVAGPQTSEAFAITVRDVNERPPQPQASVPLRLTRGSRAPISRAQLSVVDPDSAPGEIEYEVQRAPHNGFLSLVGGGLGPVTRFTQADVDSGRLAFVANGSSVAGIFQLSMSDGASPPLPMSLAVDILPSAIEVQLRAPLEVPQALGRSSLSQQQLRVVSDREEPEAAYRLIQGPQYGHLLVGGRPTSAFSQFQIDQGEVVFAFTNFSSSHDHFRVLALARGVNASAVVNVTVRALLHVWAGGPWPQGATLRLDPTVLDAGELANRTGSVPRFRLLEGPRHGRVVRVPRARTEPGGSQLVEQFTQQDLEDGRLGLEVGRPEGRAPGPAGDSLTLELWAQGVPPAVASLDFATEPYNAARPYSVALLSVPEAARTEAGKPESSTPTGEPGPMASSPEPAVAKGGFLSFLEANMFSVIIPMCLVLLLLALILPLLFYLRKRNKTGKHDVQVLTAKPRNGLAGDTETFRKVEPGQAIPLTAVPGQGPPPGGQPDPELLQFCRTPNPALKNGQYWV", "experiment": "radioligand binding; increasing concentrations of 123I-tTF-TAA on cultivated HuAoSMC, gamma counter; nonlinear fit of total binding (GraphPad Prism 6: one site - total binding), an approximation", "conditions": "one partner purified", "data": [{"binder": "123I-tTF218-TAA (other, 123I (iodinated; residues not stated)) SGTTNTVAAYNLTWKSTNFKTILEWEPKPVNQVYTVQISTKSGDWKSKCFYTTDTECDLTDEIVKDVKQTYLARVFSYPAGNVESTGSAGEPLYENSPEFTPYLETNLGQPTIQSFEQVGTKVNVTVEDERTLVRRNNTFLSLRDVFGKDLIYTLYYWKSSSSGKKTAKTNTNEFLIDVDKGENYCFSVQAVIPSRTVNRKSTDSPVECMGQEKGEFRTAASGVRSMH", "values": [{"measurement": "Kd", "result": "~785", "unit": "nM"}]}]}
